Experimental data from patent US20260176352A1 (BIRD ROCK BIO, published 2026).

Experiments:
[1] = molecular target: T1, native full length human CB1 receptor (cannabinoid 1 receptor) (human, UniProt P21554 1-472); assay: cell-based or functional assay
[2] = molecular target: T2, mouse CB1 (mouse, UniProt P47746 1-473); assay: flow cytometry on cells expressing the target
T2 construct: whole, on cells; also called TRexCHO Mouse CB1

[3] = molecular target: T3, human CB2 (human, UniProt P34972 1-360); assay: flow cytometry on cells expressing the target
T3 construct: whole, on cells; also called TRexCHO Human CB2
T3 sequence (P34972 whole entry): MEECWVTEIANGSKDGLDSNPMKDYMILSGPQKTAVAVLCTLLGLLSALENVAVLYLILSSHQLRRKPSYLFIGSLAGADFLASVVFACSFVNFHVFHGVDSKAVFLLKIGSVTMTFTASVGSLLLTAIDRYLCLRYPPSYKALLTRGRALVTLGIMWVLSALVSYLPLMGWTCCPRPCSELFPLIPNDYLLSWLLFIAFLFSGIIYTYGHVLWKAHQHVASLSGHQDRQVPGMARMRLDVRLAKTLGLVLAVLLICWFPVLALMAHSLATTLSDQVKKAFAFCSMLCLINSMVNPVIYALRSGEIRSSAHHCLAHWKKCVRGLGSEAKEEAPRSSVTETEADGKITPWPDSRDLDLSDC

[4] = molecular target: 5HT2B (expression cell line) (Homo sapiens (Human), UniProt P41595 1-481); assay: flow cytometry on cells expressing the target
5HT2B (expression cell line), sequence (P41595 whole entry): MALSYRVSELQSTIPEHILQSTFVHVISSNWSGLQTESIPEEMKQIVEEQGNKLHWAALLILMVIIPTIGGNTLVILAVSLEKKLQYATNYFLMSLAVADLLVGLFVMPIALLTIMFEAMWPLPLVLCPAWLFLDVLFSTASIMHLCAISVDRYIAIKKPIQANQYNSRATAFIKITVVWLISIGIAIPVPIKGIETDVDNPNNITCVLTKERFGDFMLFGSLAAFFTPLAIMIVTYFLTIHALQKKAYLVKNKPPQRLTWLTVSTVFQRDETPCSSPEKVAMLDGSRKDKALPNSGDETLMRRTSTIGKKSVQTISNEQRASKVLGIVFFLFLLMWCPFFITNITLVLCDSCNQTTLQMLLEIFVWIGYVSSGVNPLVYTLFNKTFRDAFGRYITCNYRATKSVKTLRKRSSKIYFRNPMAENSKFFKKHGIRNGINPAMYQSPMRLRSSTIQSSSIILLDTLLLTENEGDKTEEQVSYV

[5] = molecular target: T1, native full length human CB1 receptor …; assay: flow cytometry, Fab on TRex-CHO human CB1 cells

T1 sequence (P21554 whole entry): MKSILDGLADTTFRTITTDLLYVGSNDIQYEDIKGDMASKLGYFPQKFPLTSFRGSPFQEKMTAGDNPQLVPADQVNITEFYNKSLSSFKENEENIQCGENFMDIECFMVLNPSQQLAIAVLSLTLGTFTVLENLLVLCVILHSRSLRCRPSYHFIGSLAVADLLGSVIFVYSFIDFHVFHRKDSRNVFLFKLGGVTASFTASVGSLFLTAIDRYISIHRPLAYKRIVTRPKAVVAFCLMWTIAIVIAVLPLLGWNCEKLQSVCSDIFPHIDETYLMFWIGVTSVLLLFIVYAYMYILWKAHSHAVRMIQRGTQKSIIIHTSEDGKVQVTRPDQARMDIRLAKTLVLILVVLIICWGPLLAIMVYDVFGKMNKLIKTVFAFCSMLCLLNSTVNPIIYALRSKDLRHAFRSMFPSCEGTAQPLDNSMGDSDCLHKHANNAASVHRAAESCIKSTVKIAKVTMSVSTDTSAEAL
T2 sequence (P47746 whole entry): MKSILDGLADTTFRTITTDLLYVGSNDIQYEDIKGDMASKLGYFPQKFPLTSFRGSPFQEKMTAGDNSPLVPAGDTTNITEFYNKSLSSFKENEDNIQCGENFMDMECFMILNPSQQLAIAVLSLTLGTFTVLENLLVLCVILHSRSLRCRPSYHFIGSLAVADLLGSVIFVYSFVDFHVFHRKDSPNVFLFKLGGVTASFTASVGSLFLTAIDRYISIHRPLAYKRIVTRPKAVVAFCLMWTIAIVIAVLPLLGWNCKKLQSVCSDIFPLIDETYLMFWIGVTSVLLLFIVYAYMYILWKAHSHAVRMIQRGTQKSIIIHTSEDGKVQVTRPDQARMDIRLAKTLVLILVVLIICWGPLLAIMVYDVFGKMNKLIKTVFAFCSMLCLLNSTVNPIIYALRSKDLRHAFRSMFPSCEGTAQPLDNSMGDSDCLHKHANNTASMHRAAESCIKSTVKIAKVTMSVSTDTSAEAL

IC50 cAMP assay [1]: 427 nM
binding result [2]: no binding (tested: 1 µM)
binding result [3]: no binding (tested: 1 µM)
binding result [4]: no binding (tested: 1 µM)
Kd [5]: 130 nM
B1: PA13R3-P1C4 Fab (Fab, V domains shown)
VH: EVQLQQSGAELVRPGVSVKISCKASGYEFSYYWMNWVKQRPGQGLEWIGQIYPGDGETKYNGKFKGKATLTADKSSNTAYMQLSSLTSEDSAVYFCARSHGNYLPYWGQGTLVTVSA
VL: DIVLTQSPAIMSASLGERVTMTCTASSSVSSSYLHWYQQKPGSSPKLWIYSTSNLASGVPARFSGSGSGTSYSLTISSMEAEDAATYYCHQYHRSPPTFGAGTKLELK
notes: also called Chimeric P1C4 Fab
